Tested on: MS2 coat protein
Assay: apparent KD of MS2 coat protein; designed switch direction (-1 OFF switch, 1 ON switch): -1; higher = weaker reporter binding
In short: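 For each design, the apparent KD is the median over clusters of curves fitted to normalised cluster fluorescence. Clusters held RNA switches with common flanks, transcribed on Illumina chips by stalled E. coli RNA polymerase. These were titrated with SNAP-549-labelled MS2 coat protein, doubling from 0.7 or 1.5 nM to 3 µM, without input, with 200 uM small-molecule ligand, or with an oligonucleotide input.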

[1] = input ligand: microRNA oligo, concentration not stated
[2] = Eterna round: R95, input ligand: microRNA oligo, concentration not stated
[3] = Eterna round: R95, input ligand: FMN 200 uM
[4] = Eterna round: R95, input ligand: none

CCGGCGUGGUGCGGUAGUUGUACGACAUGAGGAUCACCCAUGUAGGAUAUGCGCGUGGUCGCGCCGCAGAAGGACAACGUUUGG [Random, 20% A] (Eterna round: R96, puzzle: Exclusion NG 3)
apparent KD of MS2 coat protein (input ligand: FMN 200 uM): 19.6 nM | apparent KD of MS2 coat protein [1]: 14.6 nM | apparent KD of MS2 coat protein (input ligand: none): 23.9 nM

CCGGUAUAGGAGGAUAUAGGAGUCGAUAGACACCUAGAAGGCCUGACAUGAGGAUCACCCAUGUGUCCUACCGG [Fiskers Ex 6 - 96] (puzzle: Exclusion 6)
apparent KD of MS2 coat protein [2]: 15.9 nM

CCGUAGUCAGGAUAUACAUGAGGAUCACCCAUGUAAAAUUUUAAUUUAAUUUGAAGGUGUAGAAGGGACCAGUC [Ex3 #27] (Eterna round: R97, puzzle: Exclusion 3)
apparent KD of MS2 coat protein (input ligand: FMN 200 uM): 34.9 nM | apparent KD of MS2 coat protein (input ligand: none): 33.3 nM

CCGUCACAUGAGGAUCACCCAUGUCAGGAUAUCUAUCAUAGCAUCGAAAGAUGCGGGUAGAGAAGGGACUAUCC [ChP Ext 10-04-2015 #7] (puzzle: Exclusion 1)
apparent KD of MS2 coat protein [2]: 20.3 nM

CCGUGGCAAGGAUAUACAUAGGAGAGGAAGGCAAGAGGUGGACAUGAGGAUCACCCAUGUAGAAGGUGCAGAUC [JR_Exclu2_Sub027] (puzzle: Exclusion 2)
apparent KD of MS2 coat protein [2]: 157 nM

CCGUGGCAAGGAUAUACGUAGGAGAGGAAGGCAAGAGGAGGACAUGAGGAUCACCCAUGUAGAAGGUGCAGAUC [JR_Exclu2_Sub029] (puzzle: Exclusion 2)
apparent KD of MS2 coat protein [3]: 62.3 nM | apparent KD of MS2 coat protein [2]: 77.4 nM | apparent KD of MS2 coat protein [4]: 94.5 nM

CCGUUCCGUGUAGGAUAUUGGCCCACCACGGGCCGAGAAGGACAUGAGGAUCACCCAUGUAUGCUAUUAUCGCGCGUGGCGCCC [Design 100] (Eterna round: R96, puzzle: Exclusion NG 1)
apparent KD of MS2 coat protein (input ligand: FMN 200 uM): 148 nM | apparent KD of MS2 coat protein [1]: 14.8 nM | apparent KD of MS2 coat protein (input ligand: none): 24.2 nM

CCGUUGUCAGGAUAUCGUGCAUACAACGAAAGUUCUAUGUGCGAGAAGGGACAUGAGGAUCACCCAUGUUACGG [Omei Ex4 A1] (Eterna round: R97, puzzle: Exclusion 4)
apparent KD of MS2 coat protein (input ligand: FMN 200 uM): 90.3 nM | apparent KD of MS2 coat protein (input ligand: none): 41.2 nM

CCUAAAUCCUAGGAUAUGCUAGACGAAAGUCUAGCAGAAGGAGGAACAUGAGGAUCACCCAUGUGUCCUAUAGG [Mat - Exclusion 6 - Eli Mod - D31] (Eterna round: R97, puzzle: Exclusion 6)
apparent KD of MS2 coat protein (input ligand: FMN 200 uM): 20.6 nM | apparent KD of MS2 coat protein (input ligand: none): 16.5 nM

CCUAGUUGGUAAGGAUAUCCUACACUAUUCUGACCCGUGCAAGCUACAUGAGGAUCACCCAUGUGGGAGAAGGUGCGUUAACGU [Design 9] (Eterna round: R96, puzzle: Exclusion NG 2)
apparent KD of MS2 coat protein (input ligand: FMN 200 uM): 31.2 nM | apparent KD of MS2 coat protein [1]: 23.4 nM | apparent KD of MS2 coat protein (input ligand: none): 26.7 nM

CCUCAGUAAGGAUAUCAGCUUAGUAGGUUGGUAAUGAGAGCUGAGAAGGUACAUGAGGAUCACCCAUGUUAGUU [JL Zatite mod 10] (puzzle: Exclusion 4)
apparent KD of MS2 coat protein [2]: 28.8 nM

CCUCCACAUGAGGAUCACCCAUGUCAGGAUAUAGGAUUGCUAUCAUGAGAGGAUGGCGUUAGAAGGGACAUCAC [Eternabot (L1) Solution 69] (Eterna round: R97, puzzle: Exclusion 1)
apparent KD of MS2 coat protein (input ligand: FMN 200 uM): 44.5 nM | apparent KD of MS2 coat protein (input ligand: none): 40 nM

CCUCCACAUGAGGAUCACCCAUGUCAGGAUAUCGUGUGUGCGUUUUCGGUCUUUCGUGCGAGAAGGGACGUCUG (puzzle: Exclusion 1)
apparent KD of MS2 coat protein [2]: 52.7 nM

CCUCCCUGAGGAUAUCCACCCUCAUACAUGAGGAUCACCCAUGUUCAUCCGUGGGUACCCGGAGAAGGCAGAUCUC [Megrez-b] (Eterna round: R97, puzzle: Exclusion 5)
apparent KD of MS2 coat protein (input ligand: FMN 200 uM): 81 nM | apparent KD of MS2 coat protein (input ligand: none): 85.9 nM

CCUCCGGUGCGAGGAUAUCUGGCGGCCGCCGGUGGAGAAGGCGUACAUGAGGAUCACCCAUGUCCAGCGUGCUCCUCGCUGGUU [0.15] (Eterna round: R96, puzzle: Exclusion NG 1)
apparent KD of MS2 coat protein (input ligand: FMN 200 uM): 75 nM | apparent KD of MS2 coat protein [1]: 19.9 nM | apparent KD of MS2 coat protein (input ligand: none): 31 nM

CCUCGACAUGAGGAUCACCCAUGUAAGGAUAUAAGUGCAGAGGGCGCGUAAUUAAUCGUGAGAAGGUACAACAC (Eterna round: R97, puzzle: Exclusion 1)
apparent KD of MS2 coat protein (input ligand: FMN 200 uM): 32.1 nM | apparent KD of MS2 coat protein (input ligand: none): 31.1 nM

CCUCGACAUGAGGAUCACCCAUGUCAGGAUAUUGUGUCUCGGGUUUUUUACCGAAAGGCGAGAAGGGAUGUGUG [LRO-Excl1-12] (puzzle: Exclusion 1)
apparent KD of MS2 coat protein [2]: 13.9 nM

CCUCGACAUGAGGAUCACCCAUGUCAGGAUAUUGUGUCUCGGGUUUUUUACCGAUAGGCAAGAAGGGAUGUGUG [LRO-Excl1-13] (puzzle: Exclusion 1)
apparent KD of MS2 coat protein [2]: 21.5 nM

CCUCGACAUGAGGAUCACCCAUGUCAGGAUAUUGUGUUUCGGGUUUUUUACCGUUAGGCAAGAAGGGAUGUGUG [LRO-Excl1-15] (puzzle: Exclusion 1)
apparent KD of MS2 coat protein [2]: 25.1 nM

CCUCGUUGGGAGGAUAUCCUUUAGAUUGGAGGAGGAGAAGGCUCGACAUGAGGAUCACCCAUGUGGGAUUUCCC [-24.6, -21.9 kcal, A 23%] (Eterna round: R97, puzzle: Exclusion 6)
apparent KD of MS2 coat protein (input ligand: FMN 200 uM): 127 nM | apparent KD of MS2 coat protein (input ligand: none): 35.6 nM

CCUCUACAUGAGGAUCACCCAUGUCAGGAUAUCGUGUGUUUUUUUUCGGCCGCGCGUGCGAGAAGGGACGUCUU (Eterna round: R96, puzzle: Exclusion 1)
apparent KD of MS2 coat protein (input ligand: FMN 200 uM): 35.2 nM | apparent KD of MS2 coat protein [1]: 26 nM | apparent KD of MS2 coat protein (input ligand: none): 36.2 nM

CCUCUACAUGAGGAUCACCCAUGUCAGGAUAUCGUGUGUUUUUUUUCGGCCGCGCGUGCGAGAAGGGACGUCUU (puzzle: Exclusion 1)
apparent KD of MS2 coat protein [2]: 30.1 nM

CCUCUACAUGAGGAUCACCCAUGUGAGGAUAUCCUGCGAGGAUCAAAAGAUCCUCGUGGGAGAAGGCAUAUGAA [Omei Ex1 A1] (Eterna round: R97, puzzle: Exclusion 1)
apparent KD of MS2 coat protein (input ligand: FMN 200 uM): 34.3 nM | apparent KD of MS2 coat protein (input ligand: none): 22.9 nM

CCUCUACAUGAGGAUCACCCAUGUGAGGAUAUCCUGCGAGGAUCAAAAGAUCCUCGUGGGAGAAGGCAUAUGCA [Omei Ex1 A5] (Eterna round: R97, puzzle: Exclusion 1)
apparent KD of MS2 coat protein (input ligand: FMN 200 uM): 22.2 nM | apparent KD of MS2 coat protein (input ligand: none): 21 nM

CCUCUAUUUGUGAGGAUAUCGAUAAAAUGGAUUGUCGAGAAGGCACAUGAGGAUCACCCAUGUAUUGAACAGCA [JR_BMEx4_Sub022] (Eterna round: R97, puzzle: Brourd's mod of Exclusion 4)
apparent KD of MS2 coat protein (input ligand: FMN 200 uM): 231 nM | apparent KD of MS2 coat protein (input ligand: none): 40.4 nM

CCUCUGUGAGGAUAUCGCGGCGGGCUAACUCGCAAACAAAACGAGAAGGCACAUGAGGAUCACCCAUGUAGGUG [Cetiis] (Eterna round: R97, puzzle: Exclusion 4)
apparent KD of MS2 coat protein (input ligand: FMN 200 uM): 39.1 nM | apparent KD of MS2 coat protein (input ligand: none): 262 nM

CCUCUGUGAGGAUAUGGGCCCGGGCCCGUGAGGGCCCGGGCCCAGAAGGCACAUGAGGAUCACCCAUGUGGCUU [Energy optimization 2] (Eterna round: R97, puzzle: Exclusion 4)
apparent KD of MS2 coat protein (input ligand: FMN 200 uM): 94.4 nM | apparent KD of MS2 coat protein (input ligand: none): 20 nM

CCUGCACAUGAGGAUCACCCAUGUUAGGAUAUCUCGCCGCCUAAACGAAUGGUGGCCCAGAGAAGGAACAGGGC [Riatbege] (puzzle: Exclusion 1)
apparent KD of MS2 coat protein [2]: 26.5 nM

CCUGCACAUGAGGAUCACCCAUGUUAGGAUAUCUCGCCGUCGGCUUGCCGACGGUAUUAGAGAAGGGACAAGGG [JL Tixe mod 3] (puzzle: Exclusion 1)
apparent KD of MS2 coat protein [2]: 39.5 nM

CCUGUACAUGAGGAUCACCCAUGUUAGGAUAUUCAGCCCGUCGAGUAUAAGGGUUUAAGAAGAAGGGACGUGGC [Beanused] (puzzle: Exclusion 1)
apparent KD of MS2 coat protein [2]: 13.9 nM

CCUGUUCGGGUUGGUUUGGGCGGGACAUGAGGAUCACCCAUGUAGGAUAUUUUGGCUGCCGGUCGGGAGAAGGACAUGCUUGGG [-22.4, -21.3 kcal, 17% A] (Eterna round: R96, puzzle: Exclusion NG 3)
apparent KD of MS2 coat protein (input ligand: FMN 200 uM): 135 nM | apparent KD of MS2 coat protein [1]: 61.3 nM | apparent KD of MS2 coat protein (input ligand: none): 98.3 nM

CCUUAUCCACAGGAUAUGCUCAUCUAAUGAUGAGCAGAAGGGUGGACAUGAGGAUCACCCAUGUUUAUCAAUGG [Omei Ex6 D3] (Eterna round: R97, puzzle: Exclusion 6)
apparent KD of MS2 coat protein (input ligand: FMN 200 uM): 675 nM | apparent KD of MS2 coat protein (input ligand: none): 1040 nM

CCUUCAGUAGUUAGGAUAUUUGGCGUCGAGGCGCAAGAGAAGGGACAUGAGGAUCACCCAUGUGAGUAUGGUAG [Eternabot (L1) Solution 35] (Eterna round: R97, puzzle: Brourd's mod of Exclusion 4)
apparent KD of MS2 coat protein (input ligand: FMN 200 uM): 61.9 nM | apparent KD of MS2 coat protein (input ligand: none): 63.1 nM

CCUUUGUCAGGAUAUCAGAACGCGCUCCUAGGGAGCGCAAAUGAGAAGGGACAUGAGGAUCACCCAUGUAAAGA [Erditive] (puzzle: Exclusion 4)
apparent KD of MS2 coat protein [3]: 228 nM | apparent KD of MS2 coat protein [2]: 48.9 nM | apparent KD of MS2 coat protein [4]: 59.2 nM

CCUUUGUCAGGAUAUCAGUACAGGUCGAGUUUAGACCUGUUUGAGAAGGGACAUGAGGAUCACCCAUGUAAAAC [Inzaerle] (puzzle: Exclusion 4)
apparent KD of MS2 coat protein [2]: 78 nM

— the supplement of paper PMC9170038
